Results from a protein production outcome set (Wang et al. 2014).

test: label from the status in PepcDB records

Sequence	protein production
MSKAQKRKRLNKYDGESKTPANKSTVDGGNPYPTLLRPTAEECRDVRDALLSLHGFPPEFANYRRQRLRSFSAVDDHDTQCNLKSETLNETEEESVLDGLVKILLSQNTTESNSQRAFASLKATFPKWDDVLNAESKSIENAIRCGGLAPKKAVCIKNILNRLQNERGRLCLEYLRGLSVEEVKTELSHFKGVGPKTVSCVLMFNLQHNDFPVDTHVFEIAKALGWVPKTADRNKTYVHLNRKIPDELKFDLNCLLYTHGKICSNCKKNVAKPKAKVASPDDCPLVGFYDLIV	failed
MSKAVLTTKVTPGYKDLPEVRYHFPRTYLNQVRQAVGDYILYYEPRRTTVELSSFGGRQSYFGVARVVDLVEDKDQADHYYALVDDYLDFDRPVPFVEGGHYYESALRKSDGSTNKGAFGRAVRLIPDAEFDQIWKAGFAPILGEETSRHQPRQFEISEPTVPFERPIIEMTISRPFRERSFMYNVRAAYENRCAMTGLRLINGGGRPEVQAAHIQPVAEKGPDSVRNGLALSGTVHWMFDRGLISIGDDYKILTAENHVPDDALRLLNHSRTINLPNDTAFYPNALFLKFHRDKIFKG	failed
MSKDFDLIIRNAYLSEKDSVYDIGIVGDRIIKIEAKIEGTVKDEIDAKGNLVSPGFVDAHTHMDKSFTSTGERLPKFWSRPYTRDAAIEDGLKYYKNATHEEIKRHVIEHAHMQVLHGTLYTRTHVDVDSVAKTKAVEAVLEAKEELKDLIDIQVVAFAQSGFFVDLESESLIRKSLDMGCDLVGGVDPATRENNVEGSLDLCFKLAKEYDVDIDYHIHDIGTVGVYSINRLAQKTIENGYKGRVTTSHAWCFADAPSEWLDEAIPLYKDSGMKFVTCFSSTPPTMPVIKLLEAGINLGCASDNIRDFWVPFGNGDMVQGALIETQRLELKTNRDLGLIWKMITSEGARVLGIEKNYGIEVGKKADLVVLNSLSPQWAIIDQAKRLCVIKNGRIIVKDEVIVA	not failed
MSKELLGVSAVGLMVLGEFCAIYSEVVVARLAHSGNTSGAELALPVLIMCLGGICLLAAYWLGYVAVGDIWIITVVSVTSLLLLEPLVIWALFQQAPGRGALIGFCLGALGMLSAVFL	failed
MSKFTDRIKNVFTVDYDDYDEDYYDDYEDDDMGLEPEKPEKKERATKSRSERFSARRAATRSDDDIIDDYDEVTAEHEEEPAPHVKTRATARAVKNSRSSRNHKVVPMKSSSEMEVCVIKPSYYENTRDIIDTLLEGKSVVLNLEGMKLDLAQRIVDSVSGGCYAIQGNLQKISGYIYLVTPHSVDITGDFQDLVHDSSDYSSTAYSRRNY	failed
MSKGRDILTKTIILALREVAPGLEAVLEAHLRATLNSGIELAYDDPQKFKEAVSKLFGEYSARLLEMVIISKLKGRLGEDIEANSLEELVSEIRKIYGE	not failed
MSKHVNWSGVFPAVTTQFNADFSVNLEETHTVISNLVRDGVSGLVVCGSVGENTSLTIEEKMAVTEVAKDASGGRVPVICGIAEFTSAGAAKVAKAVERVGVDGIMVMPALVYSSKPHETAEHFRSVASGTDLPVMVYNNPPIYRNDVTPDILVSLADCENIVCFKDSSGDTRRFIDVRNQVGERFILFAGLDDVVLESVAVGAQGWISGMSNVFPKEGETIFRLARAGRFAEAMPIYEWLMPILHLDARPDLVQCIKLCEQLAGRGSALTRPPRLALRGADREHVERIMAKALA	failed
MSKIFVNPSAIRAGLADLEMAEETVDLINRNIEDNQAHLQGEPIEVDNLPEDMGRLHLDDGKSPNPGEMAKVGEGKYREDFQMDEGEDPSLLFQSYLDNVGVQIVRQIRSGERFLKIWSQTVEEIISYVAVNFPNPPGKSSEDKSTQTTGRELKKETTPTPSQRESQSSKARMAAQTASGPPALEWSATNEEDDLSVEAEIAHQIAESFSKKYKFPSRSSGILLYNFEQLKMNLDDIVKEAKNVPGVTRLARDGSKLPLRCVLGWVALANSKKFQLLVESNKLSKIMQDDLNRYTSC	not failed
MSKILLTGASGYIGSHLKNKLKKDHEVIAISRNTHNKTDEENVTWKSADLFDLDEITKVMKDVDTAIYLVHSMMPSAKLTQASFEDMDALLADNFARAAQKQGVKHIVYMSGLIPENDELSAHLRSRLECEKILGDYGIPVSTLRAGLIIGAKGSSYPILKRLVKRLPAMVLPSWAYNKIAPVAIDDVIDGLAALVNRTPKDNEAIDITGPEVMNYKTLIQRTANVLDKRLPMLDLPIIPIIVSRYWVQLISNVPKEMVYPLMNSLTHDMVPHRKRVVSNLSVGNITFEDSVKRALREEQKTSKKKSDSKNSQSFGRMHQEIKDVRAITRFKIPEGYSIKDVTKEYAKFINNITLHLVKGTINEREFNMNLPFINKFILKMERDEADSTEDMVVYNIVGGDLAHSNDGGNARFEFRRIRNTNEGIIALQEYEPTLPWVVYKLTQAKAHKTVMNIFKNKMARLAQQKNVKDETYMSNRVTIGVTVASAFVIGSAVGFQLFKKHQIKKNTMSNAEL	failed
MSKKIILITGASSGFGRLTAEALWSRPPGIRLDARHCRPQRVQCSPALPGTMTLTCAPWSSTSSRRSVDRAIDQIIGEDGRIDVLIHNAPHGVRTRRSIHARAVRRALRYQCAPNASTGRRCRTCAGKSMGFSWISSSSSAGGTPPYLAPYFAAKAHGCHRCAVRTAVALGHRDVDHRPVPSRAAPITSPIPAYRTTTPAAEYEAGPNAGLGEEIKKAFAAIVAGRRCVTGCRCHCSGCGHRVRQARSGCTSTRPKTAPMWDSAFWTGRAEMLHRVGLSDLLKPRALA	not failed
MSKKKILIFISVILIIFGGVYLKMKYDEKAKQKEIYYKEQQERITLYLKYNTKKPNTIKSVHFTSLEQGPMGDAIIEGYINNNKEDEFVAFASPENNYQFGGGLTADVKIFKLLKPANESRSPNEIKKDLDKKKERLEHHHHHH	not failed
MSKKSGLSFLWLSAVAFVIDLLTKYIVVQKFDLYESVNVLPVFNLTYVRNYGAAFSFLADHSGWQQYFFILLALAISGMLVYFLAKNNAEQKIQNSAYALIIGGALANMVDRAYNGFVVDFFDFYWDIYHYPVFNIADIAICIGAGLLVLDAFKSEKKKVQDKQVEKCGQK	failed
MSKPLYVFDMDETLINADCAMIWNAFLVEKGIATQPNFIEEDQRLMALYAEGKMDMEDYLEFCMAPLADMPIAHVLMLVEECVEHHILPKQFEQSKTLIAQLDRDDIDMVIISASVTFLVEAVGRRLGIPVALGIDLVEKHGSYSAEIAGVPSYREGKVIRLKAWLDAQPESYSEVHFYTDSINDLPLCEYADYAYLVNPCPQLKARADKANWTLLRWN	failed
MSKQAVYKIELKIFGYFILILMLSTITVILMLIVKNALEEVLIRYNENTLMTAKFLFCDVKKFSIVMYFFVFVIWSHLLLKRKVQYFINLSESTSEIAKGNFKVIIPVKREDEFGNLAKGINEIVEKFNFILKKEKEIEKTKIDLITNVSHDLRTPLTSILGYLELVENDQYKDEVALWYYIDIAYNKTKRLKVLIDDLFQLTTLNEHSMKLCKKEINIAELLKQLIGEYMLNFQKAGIRCRLKLTDEKLYVLGDAVLLIRAFENIIINCIKYSKTSEIMDVSVQRKGDMAVLNFINYGEPIPAIDIPYIFQRFYRVDKSRSDKLGGSGLGLAIAKNIIDITGGNIEVESDTTRTNFKIVLPCYGK	failed
MSKQLLALNIDGALLRSNGKIHQATKDAIEYVKKKGIYVTLVTNRHFRSAQKIAKSLKLDAKLITHSGAYIAEKIDAPFFEKRISDDHTFNIVQVLESYQCNIRLLHEKYSIGNKKKVNSNLLGKALIHPSDPIFYPVQFVESLSDLLMDEPVSAPVIEVYTEHDIQHDITETITKAFPAVDVIRVNDEKLNIVPKGVSKEAGLALVASELGLSMDDVVAIGHQYDDLPMIELAGLGVAMGNAVPEIKRKADWVTRSNDEQGVAYMMKEYFRMQQRKGFLDKFHMKR	not failed
MSKRSEVLEQFHGGLKNLELQTKRRMGLWGDPKENEEQTLFLEEIENELKQLENKENLKADNNTEFKEENQDTKENQPNDLFSLPLPTQTTINGIKEFVEEPVIETEKKETSQNEPIQEKKERIFKNFFSRIGFDKSIAPTMLFEEVRDASVIYHLEKKLGDYIFYVACFFFGTTALLIILLTILLPLKQKEPYLVQFSNNKENFALVQKADSSITANKALIRSLVGAYVLNRESITHIEQHEKMRQNTIKEQSSNEVWYEFEKLIAHYDSIYTNPLLTRKVKIANIYLDKDLAYIDIEVSLYHSGELESLKRYKVVMSFEFKKQEINFDSMSLNPTGFMVTSYDVTEIAIVNYPTAKAIGLFLAS	failed
MSKTDTAAVEATEENSNETTSDAATSSSGEKEAEFDNKIEADRSRRFDFLLKQTEIFTHFMTNSAKSPTKPKGRPKKIKDKDKEKDVADHRHRKTEQEEDEELLAEDSATKEIFRFDASPAYIKSGEMRDYQIRGLNWMISLYENGINGILADEMGLG	failed
MSKTLKEITDQKNELKKFFENFVLNLEKTEIFSEIQKNLTDEVLFVGCGSSYNLALTISYYFERVLKIRTKAIPAGEVAFQKIPDLEERGLAFLFSRTGNTTEVLLANDVLKKRNHRTIGITIEEESRLAKESDLPLVFPVREEAIVMTKSFSMILLSLMFLADKIAGNSTERFSELVGYSPEFFDISWKVIEKIDLKEHDHFVFLGMSEFFGVSLESALKCIEMSLTFSEAYSTLEYRHGPKALVKKGTLVFMQKVSGMDEQEKRLRKELESLGATVLEVGEGGDIPVSNDWKSAFLRTVPAQILGYQKAISRGISPDKPPHLEKTVVL	not failed
MSKVCQVTGKRPVVGNNVSHANNKTKRRFEPNLHHHRFWLESEKRFVRLRLTTKGMRIIDKLGIEKVVADLRAQGQKI	failed
MSKVFVNISLSLDGFMAPEGMDMAHFSDPTYKNWGAKWGALMAWALSQQYLREKLKLGTGGETGPVNDMVRHTFERTGAHIMGKRMFEGGERGWPEEAPFHTPVYVLTHERRNPWVRPGGTTFYFVNDGPEQALALAREAAGERDIRISGGANVIQQYLNLGLVDELEIALIPVIFGGGRRLFENLHEPLPQFRIDRVLASPTATHLRYVRL	not failed
MSKVIIPKIVGHRGVGKEGLAPENTLRSFVLCMERNIPYIETDLRVCKTGEIVLFHGTPEGTIPFYKDGTSRIGDLSLEELKRLDVGGGHTIPSLEELFVAIEEQKFNLKLNLELKGEEWKRKESGDHQRLLLLVEKYHMQERVDYCSFHHEALAHLKALCPDVKITYLFNYMGQPTPLDFVEQTQKACYGDANGVSMLFHYLTKEQVCTAHEKGLSVTVWMPWIFDDSEEDWKKCLELQVDLICSNYPFGLMNFLSNISE	not failed
MSKVNQQDIDKLIELVGGRGNIATVSHCITRLRFVLNDPAIARPKEIEQLRMVKGCFTNAGQFQVVIGTEVGDYYKALLATTGQTSADKEQVKQAARQNM	failed
MSLAARLIRSSRSNTFGIITDYVSTTPYSVDIVRGIQDWANANGKTILIANTGGSSEREVEIWKMFQSHRIDGVLYVTMYRRIVDPESGDVSIPTVMINCRPQTRELLPSIEPDDYQGARDLTRYLLERGHRRIGYIRLNPILLGAELRLDAFRRTTSEFGLTENDLSISLGMDGPVGAENNYVFAAATEMLKQDDRPTAIMSGNDEMAIQIYIAAMALGLRIPQDVSIVGFDDFRTVTMALKPELTTAALPYYDLGREGAKWLNDLIAGEKIYPGSRVVSCKLVERSSAAFGEGHHHHHH	not failed
MSLAEVNPMSKPLVRWPINPLRTAVIVVDMQKVFCEPTGALYVKSTADIVQPIQKLLQAARAAQVMVIYLRHIVRGDGSDTGRMRDLYPNVDQILARHDPDVEVIEALAPQSDDVIVDKLFYSGFHNTDLDTVLRARDVDTIIVCGTVTNVCCETTIRDGVHREYKVIALSDANAAMDYPDVGFGAVSAADVQRISLTTIAYEFGEVTTTAEVIRRIESAYPHGREGHHHHHH	not failed
